Source: patent publication US20130040894A1, “INHIBITION OR ACTIVATION OF SERINE/THREONINE ULK3 KINASE ACTIVITY” (TALLINN UNIVERSITY OF TECHNOLOGY, priority 2009, published 2013)

What was measured:
[1] = target: T1, FLAG-tagged GLI1 (full length)
T1 chain: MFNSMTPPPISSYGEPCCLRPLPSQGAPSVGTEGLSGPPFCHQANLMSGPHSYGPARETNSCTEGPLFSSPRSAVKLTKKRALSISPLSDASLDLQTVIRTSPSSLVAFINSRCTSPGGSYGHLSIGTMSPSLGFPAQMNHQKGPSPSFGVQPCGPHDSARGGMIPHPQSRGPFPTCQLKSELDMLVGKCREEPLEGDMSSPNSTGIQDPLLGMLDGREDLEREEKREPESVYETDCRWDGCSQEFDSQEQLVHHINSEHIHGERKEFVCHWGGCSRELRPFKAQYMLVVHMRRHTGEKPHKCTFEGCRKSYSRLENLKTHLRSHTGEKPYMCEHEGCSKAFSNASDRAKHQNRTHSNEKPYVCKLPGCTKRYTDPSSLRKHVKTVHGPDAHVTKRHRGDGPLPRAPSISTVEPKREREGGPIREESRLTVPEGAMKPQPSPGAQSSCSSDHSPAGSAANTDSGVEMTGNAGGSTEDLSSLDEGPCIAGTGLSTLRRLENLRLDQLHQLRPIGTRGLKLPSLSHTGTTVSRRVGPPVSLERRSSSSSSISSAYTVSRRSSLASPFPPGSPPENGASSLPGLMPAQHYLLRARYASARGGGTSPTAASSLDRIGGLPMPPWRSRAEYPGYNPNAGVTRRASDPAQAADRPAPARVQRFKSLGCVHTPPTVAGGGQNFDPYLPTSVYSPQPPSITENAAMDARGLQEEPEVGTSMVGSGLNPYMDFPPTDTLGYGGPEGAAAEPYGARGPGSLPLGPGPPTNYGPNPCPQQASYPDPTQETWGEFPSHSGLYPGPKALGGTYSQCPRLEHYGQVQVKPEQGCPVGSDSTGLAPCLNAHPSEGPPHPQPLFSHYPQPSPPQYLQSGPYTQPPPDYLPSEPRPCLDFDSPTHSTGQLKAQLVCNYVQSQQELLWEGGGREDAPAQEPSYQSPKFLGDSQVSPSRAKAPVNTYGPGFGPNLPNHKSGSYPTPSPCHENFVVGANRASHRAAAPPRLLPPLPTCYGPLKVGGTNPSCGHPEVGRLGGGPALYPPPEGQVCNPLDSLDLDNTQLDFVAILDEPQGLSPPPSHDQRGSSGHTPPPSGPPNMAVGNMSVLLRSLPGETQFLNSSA

FLAG-tagged GLI3, P10071 = target: T2, FLAG-tagged GLI3, P10071
T2 chain: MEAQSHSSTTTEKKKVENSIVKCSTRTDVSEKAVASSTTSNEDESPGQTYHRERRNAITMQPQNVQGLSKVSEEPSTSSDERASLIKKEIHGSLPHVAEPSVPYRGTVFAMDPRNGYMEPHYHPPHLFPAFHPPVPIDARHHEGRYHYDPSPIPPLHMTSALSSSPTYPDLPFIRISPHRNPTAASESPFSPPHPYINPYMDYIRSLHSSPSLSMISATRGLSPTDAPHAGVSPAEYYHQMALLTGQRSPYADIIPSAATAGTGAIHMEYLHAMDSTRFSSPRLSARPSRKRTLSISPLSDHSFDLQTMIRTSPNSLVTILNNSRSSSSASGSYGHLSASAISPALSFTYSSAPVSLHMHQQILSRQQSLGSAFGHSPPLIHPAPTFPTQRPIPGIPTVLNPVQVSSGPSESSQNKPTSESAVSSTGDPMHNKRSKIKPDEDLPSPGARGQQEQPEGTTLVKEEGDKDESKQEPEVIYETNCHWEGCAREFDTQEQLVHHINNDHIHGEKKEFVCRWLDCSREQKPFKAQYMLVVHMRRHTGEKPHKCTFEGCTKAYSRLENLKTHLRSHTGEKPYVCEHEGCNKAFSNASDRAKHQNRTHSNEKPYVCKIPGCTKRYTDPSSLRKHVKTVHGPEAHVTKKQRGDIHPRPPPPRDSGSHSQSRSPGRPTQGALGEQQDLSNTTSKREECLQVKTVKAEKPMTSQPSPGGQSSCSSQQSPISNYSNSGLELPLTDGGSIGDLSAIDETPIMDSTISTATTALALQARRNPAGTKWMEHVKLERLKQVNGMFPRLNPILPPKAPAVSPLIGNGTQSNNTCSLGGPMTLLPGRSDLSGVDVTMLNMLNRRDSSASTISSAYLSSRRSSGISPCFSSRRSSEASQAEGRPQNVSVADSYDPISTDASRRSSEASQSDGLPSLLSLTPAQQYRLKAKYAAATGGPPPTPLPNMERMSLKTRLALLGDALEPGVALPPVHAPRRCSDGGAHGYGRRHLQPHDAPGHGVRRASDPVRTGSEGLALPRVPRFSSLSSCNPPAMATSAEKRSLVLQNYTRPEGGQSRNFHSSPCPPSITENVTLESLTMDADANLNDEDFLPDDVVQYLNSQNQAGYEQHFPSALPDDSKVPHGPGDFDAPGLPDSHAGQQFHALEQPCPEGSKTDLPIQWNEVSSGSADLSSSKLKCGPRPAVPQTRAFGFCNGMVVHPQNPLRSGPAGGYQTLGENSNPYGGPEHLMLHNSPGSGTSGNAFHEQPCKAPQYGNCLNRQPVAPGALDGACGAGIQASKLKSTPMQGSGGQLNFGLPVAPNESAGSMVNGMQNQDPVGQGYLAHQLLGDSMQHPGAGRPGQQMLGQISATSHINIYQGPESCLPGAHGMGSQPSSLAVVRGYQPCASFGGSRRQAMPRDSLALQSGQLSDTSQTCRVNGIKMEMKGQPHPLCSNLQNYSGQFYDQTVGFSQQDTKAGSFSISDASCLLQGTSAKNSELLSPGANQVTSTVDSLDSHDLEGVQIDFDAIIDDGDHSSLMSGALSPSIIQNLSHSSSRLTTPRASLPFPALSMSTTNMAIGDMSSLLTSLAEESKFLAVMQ

B1: FLAG-tagged wild-type ULK3 (human serine/threonine kinase ULK3) (protein)
chain: MAGPGWGPPRLDGFILTERLGSGTYATVYKAYAKKDTREVVAIKCVAKKSLNKASVENLLTEIEILKGIRHPHIVQLKDFQWDSDNIYLIMEFCAGGDLSRFIHTRRILPEKVARVFMQQLASALQFLHERNISHLDLKPQNILLSSLEKPHLKLADFGFAQHMSPWDEKHVLRGSPLYMAPEMVCQRQYDARVDLWSMGVILYEALFGQPPFASRSFSELEEKIRSNRVIELPLRPLLSRDCRDLLQRLLERDPSRRISFQDFFAHPWVDLEHMPSGESLGRATALVVQAVKKDQEGDSAAALSLYCKALDFFVPALHYEVDAQRKEAIKAKVGQYVSRAEELKAIVSSSNQALLRQGTSARDLLREMARDKPRLLAALEVASAAMAKEEAAGGEQDALDLYQHSLGELLLLLAAEPPGRRRELLHTEVQNLMARAEYLKEQVKMRESRWEADTLDKEGLSESVRSSCTLQ
With B1 the “in vitro kinase assay, phosphorylation signal (32P autoradiography)” value [1] was “GLI1 and GLI3 were also phosphorylated by ULK3, but with significantly lower intensity as compared to GLI2” and the “in vitro kinase assay, phosphorylation signal (32P autoradiography)” value (FLAG-tagged GLI3, P10071) was “GLI1 and GLI3 were also phosphorylated by ULK3, but with significantly lower intensity as compared to GLI2”.
